Here are results for 9 molecules from patent US20240270821A1, “GIP/GLP1/GCG TRI-RECEPTOR AGONISTS AND USES THEREOF” (priority 2023, published 2024).

Numbering of substitutions follows the chain as printed.

What all share (assay): cell-based or functional assay
One assay deals with hGLP-1R (Homo sapiens, UniProt P43220).
In assay [1] the target is T1, human GIP receptor (human) (UniProt P48546).
T1 sequence (looked up): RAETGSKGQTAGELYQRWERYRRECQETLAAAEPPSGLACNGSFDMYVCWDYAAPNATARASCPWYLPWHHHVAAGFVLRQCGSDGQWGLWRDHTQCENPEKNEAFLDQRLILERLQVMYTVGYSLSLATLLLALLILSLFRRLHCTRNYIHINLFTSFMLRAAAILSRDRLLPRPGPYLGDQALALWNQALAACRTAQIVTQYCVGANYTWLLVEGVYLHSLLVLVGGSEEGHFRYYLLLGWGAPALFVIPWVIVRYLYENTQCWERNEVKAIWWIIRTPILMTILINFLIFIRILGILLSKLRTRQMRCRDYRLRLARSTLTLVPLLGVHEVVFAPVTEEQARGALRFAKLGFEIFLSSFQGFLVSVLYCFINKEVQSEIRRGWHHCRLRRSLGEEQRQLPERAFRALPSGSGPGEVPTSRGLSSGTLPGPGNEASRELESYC

In assay [2] the target is human glucagon receptor (human) (UniProt P47871).
Sequence of human glucagon receptor (human) (P47871 26-477): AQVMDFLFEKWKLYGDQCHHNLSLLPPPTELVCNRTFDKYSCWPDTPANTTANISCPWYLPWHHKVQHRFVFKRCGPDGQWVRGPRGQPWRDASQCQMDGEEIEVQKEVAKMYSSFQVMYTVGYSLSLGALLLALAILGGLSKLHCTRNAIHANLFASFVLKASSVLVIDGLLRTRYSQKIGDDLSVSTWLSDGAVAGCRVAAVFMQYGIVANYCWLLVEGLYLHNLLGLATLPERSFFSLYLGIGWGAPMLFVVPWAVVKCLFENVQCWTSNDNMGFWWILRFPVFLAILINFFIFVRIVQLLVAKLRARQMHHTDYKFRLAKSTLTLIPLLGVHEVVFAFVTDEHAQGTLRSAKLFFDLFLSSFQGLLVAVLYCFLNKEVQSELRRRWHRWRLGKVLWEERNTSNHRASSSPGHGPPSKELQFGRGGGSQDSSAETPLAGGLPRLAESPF

Sequence of hGLP-1R (P43220 24-463): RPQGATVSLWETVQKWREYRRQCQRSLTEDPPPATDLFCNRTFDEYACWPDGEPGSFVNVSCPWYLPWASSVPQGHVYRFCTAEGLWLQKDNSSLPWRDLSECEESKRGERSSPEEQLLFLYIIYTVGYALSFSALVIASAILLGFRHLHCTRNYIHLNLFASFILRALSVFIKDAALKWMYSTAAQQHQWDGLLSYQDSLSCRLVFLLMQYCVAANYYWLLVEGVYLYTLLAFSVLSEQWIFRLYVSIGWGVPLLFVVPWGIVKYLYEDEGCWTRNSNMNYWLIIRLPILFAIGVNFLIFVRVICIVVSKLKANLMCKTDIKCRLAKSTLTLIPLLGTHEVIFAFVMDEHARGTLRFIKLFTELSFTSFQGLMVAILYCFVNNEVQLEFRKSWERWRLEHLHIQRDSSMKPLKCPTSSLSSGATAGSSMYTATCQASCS

B1: Example 60 (peptide)
chain: YXQGTFTSDFSXXLDKKAQXAFIEYLLAGGPSSGAPPPSEG
modifications: synthetic construct; SITE 2: note = 2-Aminoisobutyric Acid; SITE 12: note = L-ornithine; SITE 13: note = alpha-methyl-leucine; SITE 17: note = Lysine is chemically modified through conjugation of the epsilon-amino group of the Lysine side chain with (2-[2-(2-Amino-ethoxy)-ethoxy]-acetyl)-(gamma-Glu)
With B1, the Relative cAMP EC50 in the assay with hGLP-1R worked out at 1.93 nM; in assay [1], 0.135 nM; in assay [2] it was 8.96 nM. In addition, the cAMP Rel EC50, nM (in the presence of 1% HSA) with hGLP-1R came out at 409 nM; in assay [1] it was 33 nM; in assay [2] it was 1210 nM.

B2: Example 635 (peptide)
chain: YXQGTXTSDXSIXLDKKAQXXFIEYLEEGGPSSGEPPPSGSEE
modifications: non-natural residues; C18 diacid-(γ-Glu)2 acyl on Lys; C-terminal amide; synthetic construct; SITE 2: note = 2-Aminoisobutyric Acid; SITE 6: note = alpha-methyl-2-fluoro-L-phenylalanine; SITE 10: note = 3-(4-Pyridyl)-L-alanine; SITE 13: note = alpha-methyl-leucine; SITE 17: note = Lysine is chemically modified through conjugation of the epsilon-amino group of the Lysine
As to B2, the Relative cAMP EC50 was 0.625 nM with hGLP-1R, 0.0405 nM in assay [1] and 7.09 nM in assay [2]. Also, the cAMP Rel EC50 (in the presence of 1% HSA) in the assay with hGLP-1R was found to be 53.9 nM; in assay [1], 2.7 nM; in assay [2], 753 nM.

B3: Example 639 (peptide)
chain: B2 chain with E27Q
modifications: non-natural residues; K acylated (γGlu)2-C18 diacid; C-amide; synthetic construct; SITE 2: note = 2-Aminoisobutyric Acid; SITE 6: note = alpha-methyl-2-fluoro-L-phenylalanine; SITE 10: note = 3-(4-Pyridyl)-L-alanine; SITE 13: note = alpha-methyl-leucine; SITE 17: note = Lysine is chemically modified through conjugation of the epsilon-amino group of the Lysine
For the molecule B3, the Relative cAMP EC50 in the assay with hGLP-1R was 0.374 nM; in assay [1], 0.0231 nM; in assay [2] it was 8 nM. Further, the cAMP Rel EC50 (in the presence of 1% HSA) came out at 27.9 nM in the assay with hGLP-1R, 2.04 nM in assay [1] and 750 nM in assay [2].

B4: Example 636 (peptide)
chain: B2 chain with E27A
modifications: non-natural residues; C18 diacid-(γ-Glu)2 acyl on Lys; C-terminal amide; synthetic construct; SITE 2: note = 2-Aminoisobutyric Acid; SITE 6: note = alpha-methyl-2-fluoro-L-phenylalanine; SITE 10: note = 3-(4-Pyridyl)-L-alanine; SITE 13: note = alpha-methyl-leucine; SITE 17: note = Lysine is chemically modified through conjugation of the epsilon-amino group of the Lysine
In the case of B4, the results for the Relative cAMP EC50 (with hGLP-1R; in assay [1]; in assay [2]) were 0.504 nM, 0.054 nM and 9.28 nM, respectively. In addition, the cAMP Rel EC50 (in the presence of 1% HSA) with hGLP-1R came to 36.6 nM; in assay [1], 4.3 nM; in assay [2] it was 935 nM.

B5: Example 638 (peptide)
chain: B2 chain with E27T
modifications: Aib, αMeF(2F), 4Pal, αMeL, Orn; γGlu2-C18 diacid Lys; amide; synthetic construct; SITE 2: note = 2-Aminoisobutyric Acid; SITE 6: note = alpha-methyl-2-fluoro-L-phenylalanine; SITE 10: note = 3-(4-Pyridyl)-L-alanine; SITE 13: note = alpha-methyl-leucine; SITE 17: note = Lysine is chemically modified through conjugation of the epsilon-amino group of the Lysine
On to B5, for which the Relative cAMP EC50 amounted to 0.4 nM in the assay with hGLP-1R, 0.0354 nM in assay [1] and 14 nM in assay [2]. For the same molecule, the values for the cAMP Rel EC50 (in the presence of 1% HSA) (in the assay with hGLP-1R; in assay [1]; in assay [2]) were 36 nM, 2.39 nM and 1090 nM, respectively.

B6: Example 637 (peptide)
chain: B2 chain with E27S
modifications: Aib, αMeF(2F), 4Pal, Orn; acylated lysine; amide; synthetic construct; SITE 2: note = 2-Aminoisobutyric Acid; SITE 6: note = alpha-methyl-2-fluoro-L-phenylalanine; SITE 10: note = 3-(4-Pyridyl)-L-alanine; SITE 13: note = alpha-methyl-leucine; SITE 17: note = Lysine is chemically modified through conjugation of the epsilon-amino group of the Lysine
As to B6, the figures for the Relative cAMP EC50 (in the assay with hGLP-1R; in assay [1]; in assay [2]) were 1.08 nM, 0.108 nM and 11.7 nM, respectively. For the same molecule, the results for the cAMP Rel EC50 (in the presence of 1% HSA) (in the assay with hGLP-1R; in assay [1]; in assay [2]) were 76.2 nM, 7.23 nM and 968 nM, respectively.

B7: Example 640 (peptide)
chain: YXQGTXTSDXSIXLDXKAQXEFIEXLIEGGPSSGAPPPSGS
modifications: non-natural residues; Lys acylated C18 diacid; C-terminal amide; synthetic construct; SITE 2: note = 2-Aminoisobutyric Acid; SITE 6: note = alpha-methyl-2-fluoro-L-phenylalanine; SITE 10: note = 3-(4-Pyridyl)-L-alanine; SITE 13: note = alpha-methyl-leucine; SITE 16: note = L-ornithine; SITE 17: note = Lysine is chemically modified through conjugation of the epsil
B7: the results for the Relative cAMP EC50 (with hGLP-1R; in assay [1]; in assay [2]) were 0.288 nM, 0.00696 nM and 9.5 nM, respectively. Also, the cAMP Rel EC50 (in the presence of 1% HSA) with hGLP-1R was 27.8 nM; in assay [1], 0.591 nM; in assay [2] it was 730 nM.

B8: Example 641 (peptide)
chain: B7 chain with I27L
modifications: Lys acylated AEEA-γGlu-C18 diacid; non-natural residues; C-terminal amide; synthetic construct; SITE 2: note = 2-Aminoisobutyric Acid; SITE 6: note = alpha-methyl-2-fluoro-L-phenylalanine; SITE 10: note = 3-(4-Pyridyl)-L-alanine; SITE 13: note = alpha-methyl-leucine; SITE 16: note = L-ornithine; SITE 17: note = Lysine is chemically modified through conjugation of the epsil
Turning to B8, the values for the Relative cAMP EC50 (in the assay with hGLP-1R; in assay [1]; in assay [2]) were 0.489 nM, 0.00819 nM and 3.72 nM, respectively. For the same molecule, the cAMP Rel EC50 (in the presence of 1% HSA) amounted to 68.3 nM with hGLP-1R, 0.832 nM in assay [1] and 451 nM in assay [2].

B9: Example 642 (peptide)
chain: B7 chain with I27A
modifications: non-natural residues; acylated Lys; C-terminal amide; synthetic construct; SITE 2: note = 2-Aminoisobutyric Acid; SITE 6: note = alpha-methyl-2-fluoro-L-phenylalanine; SITE 10: note = 3-(4-Pyridyl)-L-alanine; SITE 13: note = alpha-methyl-leucine; SITE 16: note = L-ornithine; SITE 17: note = Lysine is chemically modified through conjugation of the epsil
Take B9: the figures for the Relative cAMP EC50 (with hGLP-1R; in assay [1]; in assay [2]) were 0.474 nM, 0.00796 nM and 3.49 nM, respectively. Moreover, the cAMP Rel EC50 (in the presence of 1% HSA) with hGLP-1R was found to be 67.1 nM; in assay [1] it was 0.791 nM; in assay [2], 519 nM.
